Data from article PMC3163394 (Cell, 2011).

Biological target: the molecule itself
Assay: crystal structure

B1: Shb17 (H13A), catalytically inactive mutant of sedoheptulose-1,7-bisphosphatase (enzyme, S. cerevisiae)
chain: MPSLTPRCIIVRAGQTEWSKSGQYTGLTDLPLTPYGEGQMLRTGESVFRNNQFLNPDNITYIFTSPRLRARQTVDLVLKPLSDEQRAKIRVVVDDDLREWEYGDYEGMLTREIIELRKSRGLDKERPWNIWRDGCENGETTQQIGLRLSRAIARIQNLHRKHQSEGRASDIMVFAHGHALRYFAAIWFGLGVQKKCETIEEIQNVKSYDDDTVPYVKLESYRHLVDNPCFLLDAGGIGVLSYAHHNIDEPALELAGPFVSPPEEESQHGDV
- stoichiometry N: 2
